This passage reports stoichiometry N results from publication PMC3947336.

Assay [1] has as its target Bxz2 Int (mycobacteriophage Bxz2 serine-integrase, gene 34) (mycobacteriophage Bxz2). The experiment in a line: native gel or EMSA.
Assay [2] deals with Bxz2 MBP-Int fusion protein (mycobacteriophage Bxz2). The experiment in a line: native gel or EMSA.

Substance “Bxz2 Int (mycobacteriophage Bxz2 serine-integrase, gene 34) (enzyme)” displayed a stoichiometry N in assay [1] of 2. Bxz2 MBP-Int fusion protein (enzyme) came in with a stoichiometry N in assay [2] of 2.
